Data set [1] relates to HeLa Kyoto. In words: thermal stability score vs G1/S (z-score of summed log2 fold changes over temperatures); higher = more thermally stable than in G1/S.
The test system of data set [2] is HeLa Kyoto. Nature of the data set: solubility change mitosis vs G1/S (difference of NP-40 vs SDS log2 ratios) (log2 ratio difference); higher = more soluble in mitosis.
Data set [3] relates to HeLa Kyoto. In words: melting temperature (median over replicates), in situ; higher = more thermally stable.
Data set [4] concerns HeLa Kyoto. Nature of the data set: solubility in G1/S (NP-40 vs SDS abundance) (log2 ratio); higher = more soluble. As to conditions: cell cycle stage: G1/S.
Where [5] appears, read: cell cycle stage: early G1 (4.5 h after nocodazole release).
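For melting temperature (median over replicates), in situ in this document: HeLa Kyoto cells synchronized by double thymidine or nocodazole block, proteins quantified by TMT10plex mass spectrometry, three independent biological replicates.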
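For solubility change mitosis vs G1/S (difference of NP-40 vs SDS log2 ratios) in this document: synchronized HeLa Kyoto cells (double thymidine block for G1/S, nocodazole release for mitosis), protein amounts in NP-40 versus SDS lysates quantified by mass spectrometry, three biological replicates.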
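For solubility in G1/S (NP-40 vs SDS abundance) in this document: HeLa Kyoto cells arrested at G1/S by double thymidine block, proteins quantified by TMT10plex mass spectrometry in mild NP-40 versus SDS extracts, three biological replicates.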
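For thermal stability score vs G1/S (z-score of summed log2 fold changes over temperatures) in this document: synchronized HeLa Kyoto cells, proteins quantified by TMT10plex mass spectrometry, three biological replicates, mitosis taken 0.5 h after nocodazole release, G1/S directly after double thymidine block.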

Chain of IRF2BP1 (chain, as listed by the source): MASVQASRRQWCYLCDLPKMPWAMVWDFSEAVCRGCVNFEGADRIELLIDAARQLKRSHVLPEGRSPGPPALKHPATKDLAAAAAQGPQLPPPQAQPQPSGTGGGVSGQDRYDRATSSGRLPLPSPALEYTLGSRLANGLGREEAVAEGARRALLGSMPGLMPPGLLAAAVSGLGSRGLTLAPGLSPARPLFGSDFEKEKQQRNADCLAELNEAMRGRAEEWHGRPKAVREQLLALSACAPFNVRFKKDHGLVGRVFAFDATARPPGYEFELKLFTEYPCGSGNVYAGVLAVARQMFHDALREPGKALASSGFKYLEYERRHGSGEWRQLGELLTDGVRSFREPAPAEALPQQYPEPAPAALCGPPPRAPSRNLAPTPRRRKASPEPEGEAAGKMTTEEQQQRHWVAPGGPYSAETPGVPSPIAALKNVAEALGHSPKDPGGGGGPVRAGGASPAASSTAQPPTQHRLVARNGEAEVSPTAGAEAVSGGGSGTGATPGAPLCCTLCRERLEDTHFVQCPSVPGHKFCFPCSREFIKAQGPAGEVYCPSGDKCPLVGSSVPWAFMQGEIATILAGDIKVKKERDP

Regarding “MVAPGLVLGLVLPLILWADRSAGIGFRFASYINNDMVLQKEPAGAVIWGFGTPGATVTVTLRQGQETIMKKVTSVKAHSDTWMVVLDPMKPGGPFEVMAQQTLEKINFTLRVHDVLFGDVWLCSGQSNMQMTVLQIFNATRELSNTAAYQSVRILSVSPIQAEQELEDLVAVDLQWSKPTSENLGHGYFKYMSAVCWLFGRHLYDTLQYPIGLIASSWGGTPIEAWSSGRSLKACGVPKQGSIPYDSVTGPSKHSVLWNAMIHPLCNMTLKGVVWYQGESNINYNTDLYNCTFPALIEDWRETFHRGSQGQTERFFPFGLVQLSSDLSKKSSDDGFPQIRWHQTADFGYVPNPKMPNTFMAVAMDLCDRDSPFGSIHPRDKQTVAYRLHLGARALAYGEKNLTFEGPLPEKIELLAHKGLLNLTYYQQIQVQKKDNKIFEISCCSDHRCKWLPASMNTVSTQSLTLAIDSCHGTVVALRYAWTTWPCEYKQCPLYHPSSALPAPPFIAFITDQGPGHQSNVAK [SIAE]”, the thermal stability score in data set [1] (setting [5]) is 1.01; in data set [1] (cell cycle stage: mitosis), -0.521. In addition, the “solubility change mitosis (log2)” value in data set [2] was -0.103. The melting temperature in data set [3] (cell cycle stage: G1/S) was determined as 58 °C; in data set [3] (cell cycle stage: mitosis), 57.9 °C. Besides, in data set [4], the “solubility in G1/S (log2)” value was found to be 0.569.
With ZSWIM8, the thermal stability score in data set [1] (setting [5]) amounted to 0.66; in data set [1] (cell cycle stage: mitosis), 1.55. Further, in data set [2], the “solubility change mitosis (log2)” value was -0.0253. The melting temperature in data set [3] (cell cycle stage: G1/S) came to 49.2 °C; in data set [3] (cell cycle stage: mitosis) it was 49 °C. In addition, the “solubility in G1/S (log2)” value in data set [4] was -0.162.
In the case of “MSKEERPGREEILECQVMWEPDSKKNTQMDRFRAAVGAACGLALESYDDLYHWSVESYSDFWAEFWKFSGIVFSRVYDEVVDTSKGIADVPEWFKGSRLNYAENLLRHKENDRVALYIAREGKEEIVKVTFEELRQEVALFAAAMRKMGVKKGDRVVGYLPNSEHAVEAMLAAASIGAIWSSTSPDFGVNGVLDRFSQIQPKLIFSVEAVVYNGKEHNHMEKLQQVVKGLPDLKKVVVIPYVSSRENIDLSKIPNSVFLDDFLATGTSEQAPQLEFEQLPFSHPLFIMFSSGTTGAPKCMVHSAGGTLIQHLKEHLLHGNMTSSDILLCYTTVGWMMWNWMVSLLATGAAMVLYDGSPLVPTPNVLWDLVDRIGITVLVTGAKWLSVLEEKAMKPVETHSLQMLHTILSTGSPLKAQSYEYVYRCIKSSILLGSISGGTDIISCFMGHNFSLPVYKGEIQARNLGMAVEAWNEEGKAVWGESGELVCTKPIPCQPTHFWNDENGNKYRKAYFSKFPGIWAHGDYCRINPKTGGIVMLGRSDGTLNPNGVRFGSSEIYNIVESFEEVEDSLCVPQYNKYREERVILFLKMASGHAFQPDLVKRIRDAIRMGLSARHVPSLILETKGIPYTLNGKKVEVAVKQIIAGKAVEQGGAFSNPETLDLYRDIPELQGF [AACS]”, the thermal stability score in data set [1] (setting [5]) amounted to 0.491; in data set [1] (cell cycle stage: mitosis), 1.92. The “solubility change mitosis (log2)” value in data set [2] is -0.129. Besides, the melting temperature turned out to be 48.5 °C in data set [3] (cell cycle stage: G1/S) and 48 °C in data set [3] (cell cycle stage: mitosis). In addition, in data set [4], the “solubility in G1/S (log2)” value worked out at 0.0299.
On to “MRSAAAAPRSPAVATESRRFAAARWPGWRSLQRPARRSGRGGGGAAPGPYPSAAPPPPGPGPPPSRQSSPPSASDCFGSNGNGGGAFRPGSRRLLGLGGPPRPFVVLLLPLASPGAPPAAPTRASPLGARASPPRSGVSLARPAPGCPRPACEPVYGPLTMSLKPQQQQQQQQQQQQQQQQQQQQQQQPPPAAANVRKPGGSGLLASPAAAPSPSSSSVSSSSATAPSSVVAATSGGGRPGLGRGRNSNKGLPQSTISFDGIYANMRMVHILTSVVGSKCEVQVKNGGIYEGVFKTYSPKCDLVLDAAHEKSTESSSGPKREEIMESILFKCSDFVVVQFKDMDSSYAKRDAFTDSAISAKVNGEHKEKDLEPWDAGELTANEELEALENDVSNGWDPNDMFRYNEENYGVVSTYDSSLSSYTVPLERDNSEEFLKREARANQLAEEIESSAQYKARVALENDDRSEEEKYTAVQRNSSEREGHSINTRENKYIPPGQRNREVISWGSGRQNSPRMGQPGSGSMPSRSTSHTSDFNPNSGSDQRVVNGGVPWPSPCPSPSSRPPSRYQSGPNSLPPRAATPTRPPSRPPSRPSRPPSHPSAHGSPAPVSTMPKRMSSEGPPRMSPKAQRHPRNHRVSAGRGSISSGLEFVSHNPPSEAATPPVARTSPSGGTWSSVVSGVPRLSPKTHRPRSPRQNSIGNTPSGPVLASPQAGIIPTEAVAMPIPAASPTPASPASNRAVTPSSEAKDSRLQDQRQNSPAGNKENIKPNETSPSFSKAENKGISPVVSEHRKQIDDLKKFKNDFRLQPSSTSESMDQLLNKNREGEKSRDLIKDKIEPSAKDSFIENSSSNCTSGSSKPNSPSISPSILSNTEHKRGPEVTSQGVQTSSPACKQEKDDKEEKKDAAEQVRKSTLNPNAKEFNPRSFSQPKPSTTPTSPRPQAQPSPSMVGHQQPTPVYTQPVCFAPNMMYPVPVSPGVQPLYPIPMTPMPVNQAKTYRAVPNMPQQRQDQHHQSAMMHPASAAGPPIAATPPAYSTQYVAYSPQQFPNQPLVQHVPHYQSQHPHVYSPVIQGNARMMAPPTHAQPGLVSSSATQYGAHEQTHAMYACPKLPYNKETSPSFYFAISTGSLAQQYAHPNATLHPHTPHPQPSATPTGQQQSQHGGSHPAPSPVQHHQHQAAQALHLASPQQQSAIYHAGLAPTPPSMTPASNTQSPQNSFPAAQQTVFTIHPSHVQPAYTNPPHMAHVPQAHVQSGMVPSHPTAHAPMMLMTTQPPGGPQAALAQSALQPIPVSTTAHFPYMTHPSVQAHHQQQL [ATXN2]”, for which the thermal stability score was -0.37 in data set [1] (setting [5]) and -1.31 in data set [1] (cell cycle stage: mitosis). Moreover, in data set [2], the “solubility change mitosis (log2)” value is 0.278. The melting temperature was 52.5 °C in data set [3] (cell cycle stage: G1/S) and 51.9 °C in data set [3] (cell cycle stage: mitosis). For the same substance, the “solubility in G1/S (log2)” value in data set [4] was -0.281.
For the substance IRF2BP1, the thermal stability score in data set [1] (setting [5]) came to 1.4; in data set [1] (cell cycle stage: mitosis) it was 3.22. Besides, the “solubility change mitosis (log2)” value in data set [2] was -0.0595. The melting temperature was determined as 46.9 °C in data set [3] (cell cycle stage: G1/S) and 49.5 °C in data set [3] (cell cycle stage: mitosis). For the same substance, the “solubility in G1/S (log2)” value in data set [4] was determined as 0.316.
As to NUP210, the thermal stability score came out at 6.11 in data set [1] (setting [5]) and 9.9 in data set [1] (cell cycle stage: mitosis). For the same substance, the “solubility change mitosis (log2)” value in data set [2] stood at 0.0421. Further, the melting temperature amounted to 54.3 °C in data set [3] (cell cycle stage: G1/S) and 53.7 °C in data set [3] (cell cycle stage: mitosis). Also, the “solubility in G1/S (log2)” value in data set [4] is -0.0147.

For the origin of these results see the supplement of paper PMC5998384.
